Measurements reported in PMC12740422.

What was measured:
[1] = molecular target: AcrIE9 (Pseudomonas aeruginosa); experiment: SEC; analytical SEC of the pooled dimeric species of AcrIE9 alone, Superdex 200 increase 10/300 GL; 150 mM NaCl, 2 mM DTT, 5% glycerol, 20 mM HEPES pH 7.0
[2] = molecular target: AcrIE9 (Pseudomonas aeruginosa); experiment: SEC; preparative SEC of AcrIE9 during purification, HiLoad 26/600 Superdex 75 pg; 300 mM NaCl, 5% glycerol, 2 mM DTT, 20 mM HEPES pH 7.0

stoichiometry N [1]: 2
stoichiometry N [2]: 2
Substance: AcrIE9 (natural protein)
